Test results published in patent publication US20250011468A1 (Novo Nordisk, published 2025).
Where a chain is given by its changes, count along the chain named.

Experiments:
[1] = biological target: T1, human plasma-derived FIXa (Haematologic Technologies Inc) (human, UniProt P00740 47-191; P00740 227-461); test: cell-based or functional assay
[2] = biological target: T1, human plasma-derived FIXa (Haematologic …); test: cell-based or functional assay; remark: listed apart in the source

T1 sequence (P00740 47-191, chain 1 of 2): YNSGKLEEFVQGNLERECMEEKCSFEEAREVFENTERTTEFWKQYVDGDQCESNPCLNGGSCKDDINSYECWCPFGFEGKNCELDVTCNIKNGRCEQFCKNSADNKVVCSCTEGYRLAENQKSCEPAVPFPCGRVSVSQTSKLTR
T1 sequence (P00740 227-461, chain 2 of 2): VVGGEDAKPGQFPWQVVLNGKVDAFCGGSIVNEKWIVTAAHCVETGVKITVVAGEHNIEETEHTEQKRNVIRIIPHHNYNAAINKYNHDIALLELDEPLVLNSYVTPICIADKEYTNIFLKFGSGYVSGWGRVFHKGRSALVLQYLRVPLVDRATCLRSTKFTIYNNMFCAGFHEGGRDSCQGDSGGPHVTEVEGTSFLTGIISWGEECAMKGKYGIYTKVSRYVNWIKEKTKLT

B1: mAb4-9578 (monovalent one-armed version of mAb1-7977) (antibody, V domains shown)
VH: EVQLVESGGGLVQPGRSLKLSCAASGFRFDDYAMHWVRQAPGKGLEWVSGISWRGAQIGYADSVKGRFTISRDNAKNSLYLQLNSLRAEDTALYYCAKSYGSGSFYNAFDSWGQGTLVTVSS
VL: DIQMTQSPSTLSASVGDRVTITCRASQKISSWLAWYQQKPGKAPKFLIYKASRLDRGVPSRFSGSGSGTEFSLTISSLQPDDFATYYCLEYRSYIRTFGQGTKVEIK
Stimulation index at 800 nM OA antibody [1]: 850 fold

B2: mAb5-1695 (monovalent one-armed version of mAb1-9134) (antibody, V domains shown)
VH: B1 VH with R28T, A40V, R54K, A56D, Q57I, A61V, A97V
VL: B1 VL with V15A, K28S, S31E, R92S
Stimulation index at 1600 nM OA antibody [1]: 320 fold

B3: mAb5-1263 (monovalent one-armed version of mAb1-9015) (antibody, V domains shown)
VH: B1 VH with R28T, A40V, A56D, Q57I, I58K, A61V, A97V
VL: B1 VL with V15A, K28S, D55E, R92S
Stimulation index at 1600 nM OA antibody [1]: 1330 fold

B4: mAb4-7786 (bispecific, mAb1-6081/mAb1-6463) (bispecific antibody, V domains shown)
VH 1: B1 VH with R28T, D30H, A40V, A56D, Q57I, A61V, A97V
VL 1: B1 VL with V15A, K28S, R92S
VH 2: not shown
VL 2: not shown
Maximum stimulation (fold), at 4060 nM BiAb [2]: 1270 fold

B5: mAb5-2035 (monovalent one-armed version of mAb1-9285) (antibody, V domains shown)
VH: B1 VH with R28T, A40V, A56D, Q57I, A61V, D62K, A88I, A97V
VL: B1 VL with V15A, Q27K, K28S, D55E, R92S
Stimulation index at 800 nM OA antibody [1]: 732 fold

B6: mAb5-1257 (monovalent one-armed version of mAb1-9002) (antibody, V domains shown)
VH: B1 VH with G26K, R28T, A40V, A56D, Q57I, A61V, A97V
VL: B1 VL with V15A, K28S, D55E, R92S
Stimulation index at 800 nM OA antibody [1]: 567 fold

B7: mAb5-0658 (monovalent one-armed version of mAb1-8679) (antibody, V domains shown)
VH: B1 VH with R28T, A40V, A56D, Q57I, A61V, D62K, A97V
VL: B1 VL with Q27K, K28S, S30K, D55E, R92S
Stimulation index at 1600 nM OA antibody [1]: 918 fold

B8: mAb5-1409 (bispecific, mAb1-8768/mAb1-7503) (bispecific antibody, V domains shown)
VH 1: B1 VH with R28T, D30H, A40V, A56D, Q57I, A61V, A97V
VL 1: B1 VL with V15A, K28S, V58T, R92S
VH 2: EVQLVQSGAEVKKPGESLRISCKGSGYSFTTSWIVWVRQMPGKGLEWMGMIDPSDSFTSYSPSFQGHVTISADKSISTAYLQWSSLKASDTAMYYCARLHYYHSEEFDVWGQGTLVTVSS
VL 2: EIVLTQSPGTLSLSPGERATLSCRASQSVSSSYLAWYQQKPGQAPRLLIYGASSRTRGIPDRFSGSGSGTDFTLTISRLEPEDFAVYYCQQFGSSRLFTFGEGTKLEIK
Maximum stimulation (fold), at 1115 nM BiAb [2]: 11000 fold

B9: mAb5-1528 (monovalent one-armed version of mAb1-9058) (antibody, V domains shown)
VH: B1 VH with R28T, D30H, A40V, A56D, Q57I, A61V, A97V
VL: B1 VL with V15A, T22S, K28S, S72T, R92N
Stimulation index at 1600 nM OA antibody [1]: 531 fold

B10: mAb5-1270 (monovalent one-armed version of mAb1-9016) (antibody, V domains shown)
VH: B1 VH with R28T, A40V, A56D, Q57I, I58G, A61V, A97V
VL: B1 VL with V15A, K28S, D55E, R92S
Stimulation index at 1600 nM OA antibody [1]: 4320 fold

B11: mAb5-0514 (monovalent one-armed version of mAb1-8543) (antibody, V domains shown)
VH: B1 VH with G26K, A40V, A56D, Q57I, A61V, A75E, A97V
VL: B1 VL with V15A, K28S, D55E, G57D
Stimulation index at 1600 nM OA antibody [1]: 283 fold

B12: mAb5-0900 (monovalent one-armed version of mAb1-8459) (antibody, V domains shown)
VH: B1 VH with R28T, A40V, A56D, Q57I, A61V, D62K, A88I, A97V
VL: B1 VL with V15A, Q27K, K28S, S52E, D55E, R92S
Stimulation index at 1600 nM OA antibody [1]: 799 fold

B13: mAb5-0908 (monovalent one-armed version of mAb1-8467) (antibody, V domains shown)
VH: B1 VH with G26K, A40V, A56D, Q57I, A61V, A75E, A97V
VL: B1 VL with V15A, Q27K, K28S, D55E, R92S
Stimulation index at 1600 nM OA antibody [1]: 1020 fold

B14: mAb5-0152 (monovalent one-armed version of mAb1-8782) (antibody, V domains shown)
VH: B1 VH with R28T, D30H, A40V, A56D, Q57I, I58T, A61V, A97V
VL: B1 VL with V15A, K28S, R92S
Stimulation index at 1600 nM OA antibody [1]: 417 fold

B15: mAb4-7687 (bispecific, mAb1-6037/mAb1-6723) (bispecific antibody, V domains shown)
VH 1: B1 VH with R28T, A40V, A56D, Q57I, A61V, A97V
VL 1: B1 VL with V15A, K28S, S31E, R92S
VH 2: B8 VH 2
VL 2: B8 VL 2 with T56A, E102Q
Maximum stimulation (fold), at 1650 nM BiAb [2]: 2490 fold

B16: mAb5-0057 (bispecific, mAb1-8768/mAb1-6723) (bispecific antibody, V domains shown)
VH 1: B1 VH with R28T, D30H, A40V, A56D, Q57I, A61V, A97V
VL 1: B1 VL with V15A, K28S, V58T, R92S
VH 2: B8 VH 2
VL 2: B8 VL 2 with T56A, E102Q
Maximum stimulation (fold), at 1218 nM BiAb [2]: 10800 fold

B17: mAb5-0144 (monovalent one-armed version of mAb1-8780) (antibody, V domains shown)
VH: B1 VH with R28T, D30H, A40V, A56D, Q57I, I58K, A61V, A97V
VL: B1 VL with V15A, K28S, R92S
Stimulation index at 1600 nM OA antibody [1]: 1650 fold

B18: mAb5-0161 (monovalent one-armed version of mAb1-8785) (antibody, V domains shown)
VH: B1 VH with R28T, D30H, A40V, A56D, Q57I, A61V, A75K, A97V
VL: B1 VL with V15A, K28S, R92S
Stimulation index at 800 nM OA antibody [1]: 621 fold

B19: mAb4-3505 (monovalent one-armed version of mAb1-5797) (antibody, V domains shown)
VH: EVQLVQSGAEVKKPGESLRISCKGSGYRFTSYWIGWVRQMPGKGLEWMGMIDPTDSYTDYGPSFHGHVTISADKSISTAYLQWSSLKASDTAMYYCARMRIMSGAFDIWGQGTMVTVSS
VL: DIVMTQSPLSLPVTPGEPASISCRSSQSLLHSTWYNYLNWYLQKPGQSPQLLIYLGSRRASGVPDRFSGSGSGTDFTLKISRVEAEDVGVYYCMQVLHIPYTFGQGTKLEIK
Stimulation index at 474 nM OA antibody [1]: 382 fold

B20: mAb4-3461 (monovalent one-armed version of mAb1-5754) (antibody, V domains shown)
VH: B19 VH with R28S, T30R, S31P, T54S, H65E, M99V, M102R, S103A
VL: B19 VL with S28R, W34G, S57K, R58N
Stimulation index at 1478 nM OA antibody [1]: 615 fold

B21: mAb4-5342 (monovalent one-armed version of mAb1-6586) (antibody, V domains shown)
VH: B19 VH
VL: B19 VL with S57K, R58N
Stimulation index at 800 nM OA antibody [1]: 94 fold

B22: mAb4-7756 (bispecific, mAb1-6584/mAb1-6723) (bispecific antibody, V domains shown)
VH 1: B19 VH with R28S, T30R, S31P, T54S, H65R, M99V, M102R, S103A
VL 1: B19 VL with S57K, R58N
VH 2: B8 VH 2
VL 2: B8 VL 2 with T56A, E102Q
Maximum stimulation (fold), at 1520 nM BiAb [2]: 2600 fold

B23: mAb4-5337 (monovalent one-armed version of mAb1-6566) (antibody, V domains shown)
VH: B19 VH with R28S, T30R, S31P, T54S, H65E, M99V, M102R, S103A
VL: B19 VL with S32R, S57R, R58N
Stimulation index at 204 nM OA antibody [1]: 690 fold

B24: mAb4-5344 (monovalent one-armed version of mAb1-6592) (antibody, V domains shown)
VH: B19 VH with R28S, T30R, S31P, T54S, H65R, M99V, M102R, S103A
VL: B19 VL
Stimulation index at 800 nM OA antibody [1]: 916 fold

B25: mAb4-7762 (bispecific, mAb1-6584/mAb1-6738) (bispecific antibody, V domains shown)
VH 1: B19 VH with R28S, T30R, S31P, T54S, H65R, M99V, M102R, S103A
VL 1: B19 VL with S57K, R58N
VH 2: EVQLVESGGGLVKPGGSLRLSCAASGFTFSDAWMNWVRQAPGKGLEWVGRIKRKTDGGTTDYAAPVKGRFTISRDDSKNTLYLQMDSLKTEDTAVYYCTTDGIAVAGPLRVYWGQGTLVTVSS
VL 2: not shown
Maximum stimulation (fold), at 109 nM BiAb [2]: 3190 fold

B26: mAb4-5357 (monovalent one-armed version of mAb1-6590) (antibody, V domains shown)
VH: B19 VH with R28S, T30R, S31P, T54S, H65E, M99V, M102R, S103A
VL: B19 VL
Stimulation index at 800 nM OA antibody [1]: 1290 fold

B27: mAb4-3486 (monovalent one-armed version of mAb1-5781) (antibody, V domains shown)
VH: B19 VH with R28S, T30K, S31P, T54S, H65R, M99V, M102R, S103A
VL: B19 VL with S32R, S57R, R58N
Stimulation index at 564 nM OA antibody [1]: 1220 fold

B28: mAb4-3503 (monovalent one-armed version of mAb1-5796) (antibody, V domains shown)
VH: B19 VH with R28S, T30R, S31P, T54S, M99V
VL: B19 VL with S57K, R58N
Stimulation index at 900 nM OA antibody [1]: 239 fold

B29: mAb4-5368 (monovalent one-armed version of mAb1-6606) (antibody, V domains shown)
VH: B19 VH with R28S, T30R, S31P, T54S, H65E, M99V, M102R, S103A
VL: B19 VL with R58N, V96A
Stimulation index at 800 nM OA antibody [1]: 133 fold

B30: mAb4-5375 (monovalent one-armed version of mAb1-6609) (antibody, V domains shown)
VH: B19 VH with S31P, H65R, M99V, M102R
VL: B19 VL with R58N, V96A
Stimulation index at 800 nM OA antibody [1]: 94 fold

B31: mAb4-3490 (monovalent one-armed version of mAb1-5783) (antibody, V domains shown)
VH: B19 VH with R28S, T30R, S31P, T54S, H65R, M99V, M102R, S103A
VL: B19 VL with S32R, S57R, R58N
Stimulation index at 264 nM OA antibody [1]: 1040 fold

B32: mAb4-7758 (bispecific, mAb1-6584/mAb1-6097) (bispecific antibody, V domains shown)
VH 1: B19 VH with R28S, T30R, S31P, T54S, H65R, M99V, M102R, S103A
VL 1: B19 VL with S57K, R58N
VH 2: B25 VH 2 with D31N, W33H, D86N
VL 2: not shown
Maximum stimulation (fold), at 633 nM BiAb [2]: 2810 fold

B33: mAb4-5347 (monovalent one-armed version of mAb1-6582) (antibody, V domains shown)
VH: B19 VH with R28S, T30R, S31P, T54S, H65E, M99V, M102R, S103A
VL: B19 VL with S57K, R58N
Stimulation index at 800 nM OA antibody [1]: 692 fold

B34: mAb4-5355 (monovalent one-armed version of mAb1-6584) (antibody, V domains shown)
VH: B19 VH with R28S, T30R, S31P, T54S, H65R, M99V, M102R, S103A
VL: B19 VL with S57K, R58N
Stimulation index at 800 nM OA antibody [1]: 580 fold
